Target: T1, GST-tagged R289A mutant Rrp9 (S. cerevisiae, UniProt Q06506 1-573, R289A)
T1 sequence (looked up): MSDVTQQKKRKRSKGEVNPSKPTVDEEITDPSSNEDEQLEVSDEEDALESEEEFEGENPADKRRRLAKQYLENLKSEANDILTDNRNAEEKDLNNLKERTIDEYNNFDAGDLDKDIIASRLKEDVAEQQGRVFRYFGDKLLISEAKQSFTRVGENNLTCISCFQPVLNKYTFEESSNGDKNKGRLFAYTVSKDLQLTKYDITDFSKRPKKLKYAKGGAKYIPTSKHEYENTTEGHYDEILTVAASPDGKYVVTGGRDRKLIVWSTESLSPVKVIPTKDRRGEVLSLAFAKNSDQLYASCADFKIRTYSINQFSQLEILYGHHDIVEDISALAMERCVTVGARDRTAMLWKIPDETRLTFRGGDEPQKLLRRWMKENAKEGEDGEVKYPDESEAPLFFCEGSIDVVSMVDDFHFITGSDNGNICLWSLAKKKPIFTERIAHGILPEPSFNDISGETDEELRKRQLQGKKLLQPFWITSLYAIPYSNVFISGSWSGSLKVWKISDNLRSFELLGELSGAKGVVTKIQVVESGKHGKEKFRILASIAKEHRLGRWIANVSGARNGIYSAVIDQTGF
Test: pull-down

B1: [35S]-methionine-labeled Rrp36, in vitro translated (natural protein, S. cerevisiae, UniProt Q12481 1-300, looked up)
chain: MSYYFKNLKPDLNSDVEEDDGNLLESIMANKSKREIDEQESSDDELKTLSFGSLKKAETVIDEEDFKDTKPVHKKPITTTYREESFDEDEDSEDQSDEDAGFFEEDSEDETHHGQKVPKKKSKHAPVEQSSKKRVPRVRNIPGLEIPRNKRSNLYQDIRFDKSTGKALDSSIIRKRYQFLDEYREKEIDELQKLLQERKFLSKIDQGEREEMEQRLKSMKSRLQSMKNKDLEREILKEYENDMNKNNNTRYHLKKSEKRKVVQKWKFDHMKAKQREKVMERKRKKRLGKEFKQFEFHNRR
modifications: [35S]-methionine-labeled
  reduction of recovery relative to WT Rrp9: 20%
